Data on 1 substance can be found in article PMC11154737.

For the assay, the target named is Streptolysin O (SLO), wild type, full length (Streptococcus pyogenes) (UniProt P0DF96). The experiment in a line: ELISA. In general terms: ELISA stands for enzyme-linked immunosorbent assay.
Sequence of UniProt P0DF96 (P0DF96 34-571): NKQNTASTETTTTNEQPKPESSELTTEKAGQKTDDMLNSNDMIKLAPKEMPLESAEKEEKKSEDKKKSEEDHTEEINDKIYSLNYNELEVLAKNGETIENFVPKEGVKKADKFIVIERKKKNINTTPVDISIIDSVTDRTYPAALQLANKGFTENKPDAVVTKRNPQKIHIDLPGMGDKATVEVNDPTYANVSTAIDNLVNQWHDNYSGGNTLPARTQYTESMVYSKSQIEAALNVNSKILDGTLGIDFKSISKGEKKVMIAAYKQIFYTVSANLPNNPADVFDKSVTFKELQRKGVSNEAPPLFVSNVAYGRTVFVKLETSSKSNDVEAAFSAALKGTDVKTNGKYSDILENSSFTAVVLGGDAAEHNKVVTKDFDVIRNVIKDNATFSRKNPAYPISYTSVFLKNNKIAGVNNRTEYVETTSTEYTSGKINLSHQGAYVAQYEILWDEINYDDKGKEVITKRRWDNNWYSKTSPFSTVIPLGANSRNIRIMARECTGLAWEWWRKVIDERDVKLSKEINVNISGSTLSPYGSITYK

Consider “murine neutralizing monoclonal antibody (nAb) against Streptolysin O, Abcam AB23501”, for which the Kd (commonly the constant that tells how readily two partners part at equilibrium) came to 1.12 nM.
